In assay [1] the target is CD3 on T cells of human PBMC (human). The experiment in a line: cell-based or functional assay.
Assay [2] has as its target EGFR (epidermal growth factor receptor) on human glioma U87 cells (human) (UniProt P00533). As to the kind of experiment: cell-based or functional assay.

B1: EGFR-CD3-EGFR MsAb (bispecific antibody, part only; not given: linkers and His tag, not shown: small tags and cut ends)
chain, part: ESGGGLTQPGGSLRLSCAASGMSTGMWHRPTPGRERELIALKAPWPGTAPSSWRFTISRDNASNTVYLQMANLNTEDTAVYFCHAGGLLEWELLVVAASWGQGTVSSQVKLEESGSELVQPGGPLRLSCAASANIFSRTEDDWIWYRQAPGKQRAFVAWITGLSTKIGRFTISVDKSKGTIYLQMNALKPEDTAVYYANAAEHASKVVEVSTSWGQGTVVTVSSESGGGLTQPGGSLRLSCAASGMSTGMWHRPTPGRERELIALKAPWPGTAPSSWRFTISRDNASNTVYLQMANLNTEDTAVYFCHAGGLLEWELLVVAASWGQGTVSS
With B1, the 细胞杀伤率 (killing of GFP-labelled U87 cells by human PBMC, effector:target 5:1, 50 ng/mL antibody, 24 h, 7-AAD, high-content imaging) in assay [1] and in assay [2] was > 80% each time.

For the origin of these results see patent publication CN115029318A.
